Experimental data from patent US20250381241A1 (Dana-Farber, published 2025).

Molecular target: T1, WDR43 (human, UniProt Q15061 1-677, limits assumed)
T1 construct: Called a core transcriptional assembly factor at TSS; Endogenous protein from lysate
T1 sequence (looked up): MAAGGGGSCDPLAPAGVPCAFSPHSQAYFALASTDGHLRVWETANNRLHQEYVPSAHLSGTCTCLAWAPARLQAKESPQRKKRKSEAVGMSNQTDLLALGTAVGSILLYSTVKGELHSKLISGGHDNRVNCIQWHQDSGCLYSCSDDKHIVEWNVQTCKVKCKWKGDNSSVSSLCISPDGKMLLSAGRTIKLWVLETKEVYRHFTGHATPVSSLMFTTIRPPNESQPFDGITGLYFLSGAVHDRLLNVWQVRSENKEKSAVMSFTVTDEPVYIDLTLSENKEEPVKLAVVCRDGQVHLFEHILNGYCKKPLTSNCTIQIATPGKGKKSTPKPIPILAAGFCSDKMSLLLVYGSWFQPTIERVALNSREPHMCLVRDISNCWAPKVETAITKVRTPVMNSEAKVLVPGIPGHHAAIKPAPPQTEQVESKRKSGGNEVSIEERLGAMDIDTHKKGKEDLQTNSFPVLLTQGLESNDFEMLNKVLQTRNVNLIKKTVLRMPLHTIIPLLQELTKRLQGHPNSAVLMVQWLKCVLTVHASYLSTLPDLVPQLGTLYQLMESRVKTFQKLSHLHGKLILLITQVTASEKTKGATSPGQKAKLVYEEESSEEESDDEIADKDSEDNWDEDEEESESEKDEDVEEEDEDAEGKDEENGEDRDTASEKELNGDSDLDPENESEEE
Test: co-immunoprecipitation of ectopically expressed HA-tagged RIOK2 with monoclonal anti-HA antibody beads, then LC-MS/MS; spectral counts normalised to the immunoprecipitated HA-RIOK2, fold change with respect to WT
Experimental: For collection of cellular lysates, lysis was similarly performed as described above. 5% of the supernatant was saved as Input, and pre-washed monoclonal anti-HA antibody tagged-agarose beads slurry (A2095, Sigma Aldrich) was added to the rest of the supernatant and incubated at 4° C. on a rocker O/N. The beads were washed with RIPA lysis buffer, resuspended in 2× laemmli buffer, boiled at 95° C. for 10 minutes, and immediately loaded for SDS-PAGE separation. Electrophoresis was performed until the proteins ran 1/6th of the entire gel size. The gel was Coomassie stained for 1 h at 25° C., de-stained at 4° C. O/N, and were cut with sterile blades, washed with MS-grade acetonitrile solution and submitted for Mass Spectrometry analysis at BIDMC Mass Spectrometry Core. […]
Gel separated protein samples were reduced with 55 mM DTT, alkylated with 10 mM iodoacetamide (Sigma-Aldrich), and digested O/N with TPCK modified trypsin/LysC (Promega) at pH=8.3. […] 3 μL of the digested protein samples were analyzed in positive ion mode via microcapillary tandem mass spectrometry (LC-MS/MS) using a high resolution hybrid QExactive HF Orbitrap Mass Spectrometer (Thermo Fisher Scientific) via HCD with data-dependent analysis (DDA) with 1 MS1 scan followed by 8 MS2 scans per cycle (Top 8). […]

B1: ΔTAD2 (enzyme, not shown: small tags and cut ends)
chain: MGKVNVAKLRYMSRDDFRVLTAVEMGMKNHEIVPGSLIASIASLKHGGCNKVLRELVKHKLIAWERTKTVQGYRLTRQVVESVGNQMGVGKESDIYIVANEEGQQFALKLHRLGRTSFRNLKNKRDYHKHRHNVSWLYLSRLSAMKEFAYMKALYERKFPVPKPIDYNRHAVVMELINGYPLCQIHHVEDPASVYDEAMELIVKLANHGLIHGDFNEFNLILDESDHITMIDFPQMVSTSHPNAEWYFDRDVKCIKDFFMKRFSYESELFPTFKDIRREDTLDVEVSASGYTKEMQADDELLHPLGPDDKNIETKEGSEFSFSDGEVAEKAEVYGSENESERNCLEESEGCYCRSSGDPEQIKEDSLSEESADARSFEMTEFNQALEEIKGQVVENNSVTEFSEEKNRTENYNRQDGQRVQGGVPAGSDEYEDECPHLIALSSLNREFRPFRDEENVGAMNQYRTRTLSITSSGSAVSCSTIPPELVKQKVKRQLTKQQKSAVRRRLQKGEANIFTKQRRENMQNIKSSLEAASFWGE
notes: The text defines it as N-terminal HA-tagged RIOK2 with amino acids 77-90 deleted; also called HA-ΔTAD2
binding result: no binding
